{"source": "paper PMC6943137", "about": "“A novel 5′-hydroxyl dinucleotide hydrolase activity for the DXO/Rai1 family of enzymes”", "target": "T1, DXO (mouse, UniProt O70348 1-397)", "T1 sequence": "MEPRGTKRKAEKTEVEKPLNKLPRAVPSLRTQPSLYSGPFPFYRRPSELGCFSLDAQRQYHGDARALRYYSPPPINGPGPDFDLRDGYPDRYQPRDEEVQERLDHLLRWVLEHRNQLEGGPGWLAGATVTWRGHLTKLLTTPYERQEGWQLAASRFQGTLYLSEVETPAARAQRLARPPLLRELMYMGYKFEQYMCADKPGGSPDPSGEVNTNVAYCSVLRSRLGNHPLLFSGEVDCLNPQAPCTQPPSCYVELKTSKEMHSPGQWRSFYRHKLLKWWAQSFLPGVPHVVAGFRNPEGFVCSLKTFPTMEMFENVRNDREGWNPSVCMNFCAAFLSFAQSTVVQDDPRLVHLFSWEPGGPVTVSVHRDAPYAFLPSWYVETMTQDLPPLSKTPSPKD", "assay": "X-ray crystallography, 2.0 A; Ca2+ (one ion); RNA occupancy ~80%, no hydrolysis in crystal; Crystal structure; crystallization buffer not in the material. Nuclease assays (turnover, not listed): 10 mM Tris pH 7.5, 50 mM KOAc, 2 mM Mg(OAc)2, 2 mM MnCl2, 1 mM DTT, 0.1 mM spermine", "conditions": "protein: recombinant; tags: His-tag (pET28a); single strand"}
{"binder": "UUUUUU (XNA, phosphorothioate backbone; 5'-hydroxyl (5'-PO4 removed by CIP))", "note": "[5'-OH U(S)6 RNA]", "values": [{"measurement": "binding result", "result": "binds"}]}
